Substitutions are numbered along the chain they refer to.
B1: anti-CI-M6PR VHH7 (VHH)
VHH: QVQLQESGGGLVQPGGSLRLSCAASGIIFSDNRMDWYRQAPGKQREWVATLASYGWKTYADSVKGRFTISRDNTKNTVYLRMNSLKPEDTAVYYCKASSPVLNDIWGQGTQVTVSS
notes: His6-tagged (Pichia pastoris)
B2: anti-CI-M6PR VHH 1H11 (VHH)
VHH: QVQLQESGGGLVQPGGSLRLSCAASGIIFSDNRMDWYRQAPGKQREWVATLASYGWKTYADSVKDRFTISRDNAKNTVNLYMNSLQPEDTAVYYCNSGQYWGQGTQVTVSS
notes: made in E. coli WK6, His-tag purified
B3: anti-CI-M6PR VHH8 (VHH)
VHH: QVQLQESGGGLVQAGGSLRLSCEASGRTFNTYNWGWFRQAPGKEREFVAAIRWSSSKTSYADSVKGRFTISRDNAKNTIYLQMNSLKPEDTAVYYCAASIVDFTTNPSHFGSWGQGTQVTVSS
notes: His6-tagged (Pichia pastoris)
B4: anti-CI-M6PR VHH1 (VHH)
VHH: QVQLQESGGGLVQPGGSLRLSCVASGFTFDRYWMNWLRQIPGKEIEWVSTINTGGTGTYYDDSVKGRFSISRDDAKNTLYLTMNSLKTEDTAVYYCARGATYYRGNSAIRGQGTQVTVSS
notes: His6-tagged; made in Pichia pastoris, later also in E. coli WK6
B5: anti-CI-M6PR VHH5 (VHH)
VHH: QVQLQESGGGLVQAGGSLKLSCAAAGRTFSRLAMGWFRQAPGKEREFVAAISENGDSIHYSDSVKGRFAVSRDNAKNTVYLQMNSLKPEDTAIYYCAADRAAYYCSGSGCYPSRAPAAASYDYWGQGTQVTVSS
notes: as for B4

Key:
[1] = target: T1, recombinant human domain 1-3His6 of the cation-independent mannose-6-phosphate receptor (human, UniProt P11717 41-467); experiment: BLI exp 2, dissoc pH 6.5
T1 construct: Biotinylated (NHS-PEG4-biotin) for BLI; Glycosylated; also called hDom1-3His6; hCI-M6PRD1-D3

[2] = target: T1, recombinant human domain 1-3His6 of the …; experiment: ELISA on coated antigen (100 ng), anti-VHH-HRP, A450
Experimental: (§1) To determine the effect of site-directed mutations, an ELISA was performed. To this end, 100 ng of each successfully purified mutant was coated per well on Nunc Maxisorp plates in 50 mM MES, 150 mM NaCl, pH 6.5 buffer overnight at 4° C. […] Coating-only controls were included for background correction. […] Reactions were stopped after five minutes using a 2N H₂SO₄ solution and plates were read at 450 nm, with a 655 nm background correction. Data were analyzed using the GraphPad Prism 9 software.

[3] = target: T2, human cation-independent mannose-6-phosphate receptor, native, on cells (human, UniProt P11717 41-2491); experiment: flow cytometry, FLAG3-His6 VHH on HEK293T cells
T2 construct: whole, on cells; also called native CI-M6PR; cell-surface hCI-M6PR
Description: Synthetic DNA fragments encoding VHHs were ordered (IDT, Leuven, Belgium) and subcloned into an E. coli expression vector under control of an IPTG-inducible lac promoter, in frame with N-terminal PelB signal peptide (which directs the recombinant proteins to the periplasmic compartment) and C-terminal FLAG3 and His6 tags. […] VHH proteins were purified from these clones by means of IMAC chromatography followed by desalting according to well established procedures¹⁰⁶. Cells used herein were recovered using cell dissociation non-enzymatic solution (Sigma Aldrich, cat. #C5914-100ML) and resuspended to a final concentration of 1,000,000 cells/mL in FACS buffer. Cells were incubated with different concentrations of purified FLAG3-tagged VHHs for 30 minutes on ice with shaking, followed by washing and incubation with mouse M2 anti-Flag mAb (Sigma Aldrich, cat. #F-1804) in FACS buffer for 30 min on ice with shaking, followed again by washing. […] Flow cytometry and analysis were done on an Attune NxT Flow Cytometer (Thermo Fisher Scientific).
Moreover, cross-reactivity to mouse CI-M6PR was analyzed, in view of the amino acid homology between mouse and human being overall about 80% identity, but for domain 1-3 of CI-M6PR just about 75% identity.

[4] = target: T3, E148R; experiment: ELISA on coated antigen (100 ng; labelled E148R on the sheet, E148F in the text), anti-VHH-HRP, A450
T3 construct: also called human CI-M6PR Dom1-3His6 E148F
T3 chain: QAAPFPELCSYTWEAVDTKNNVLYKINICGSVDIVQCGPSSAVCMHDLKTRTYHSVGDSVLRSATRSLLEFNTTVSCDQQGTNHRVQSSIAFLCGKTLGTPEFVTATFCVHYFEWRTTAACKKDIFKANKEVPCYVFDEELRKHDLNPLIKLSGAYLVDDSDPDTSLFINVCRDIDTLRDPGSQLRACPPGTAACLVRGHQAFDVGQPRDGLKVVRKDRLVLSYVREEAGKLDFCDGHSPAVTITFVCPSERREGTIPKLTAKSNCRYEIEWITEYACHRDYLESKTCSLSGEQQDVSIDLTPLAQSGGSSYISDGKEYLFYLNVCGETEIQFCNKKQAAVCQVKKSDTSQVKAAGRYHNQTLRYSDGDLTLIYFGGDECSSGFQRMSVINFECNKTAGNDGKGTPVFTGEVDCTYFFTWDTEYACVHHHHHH
Experimental: as §1

[5] = target: T4, D409F; experiment: ELISA on coated antigen (100 ng), anti-VHH-HRP, A450
T4 construct: also called human CI-M6PR Dom1-3His6 D409F
T4 chain: T3 chain with F108E, D369F
Experimental: as §1

[6] = target: T5, E433R; experiment: as above
T5 construct: also called human CI-M6PR Dom1-3His6 E433R
T5 chain: T3 chain with F108E, E393R
Experimental: as §1

Binder | koff [1] | kon [1] | EC50 (read off the curve) [2] | EC50 [3] | EC50 (read off the curve) [4] | EC50 (read off the curve) [5] | EC50 (read off the curve) [6]
B1 | 0.02 s⁻¹ | 430000 M⁻¹ s⁻¹ | ~0.3 nM | 20 nM |  |  | 
B2 |  |  | ~0.4 nM |  | ~9 nM | ~0.4 nM | ~0.4 nM
B3 | 0.0007 s⁻¹ | 1.2e+06 M⁻¹ s⁻¹ | ~3 nM | 0.8 nM | ~3 nM | ~5 nM | ~3 nM
B4 | 0.011 s⁻¹ | 1.1e+06 M⁻¹ s⁻¹ | ~10 nM |  |  |  | 
B5 |  |  | ~2 nM |  | ~2 nM | ~4 nM | ~3 nM

— patent US20250263490A1 (VIB VZW, published 2025)
